According to PMC6072203:

Legend:
[1] = target: JFH1 NS5A 112A/148A (mutation group b); experiment: checkmate mammalian two-hybrid assay; conditions: Huh-7 cells; GAL4/BD-fused and VP16/AD-fused NS5A both carry the mutations; parent: est. 100; read off a plot
[2] = target: H77 NS5A 36A/37A/38A/112A/148A (both mutation groups); experiment: checkmate mammalian two-hybrid assay; conditions: Huh-7 cells; GAL4/BD-fused and VP16/AD-fused NS5A both carry the mutations; parent: est. 100; read off a plot
[3] = target: H77 NS5A 37A; experiment: mammalian two-hybrid assay; conditions: Huh-7 cells; GAL4/BD-fused and VP16/AD-fused NS5A both carry the mutation; parent: est. 100; read off a plot
[4] = target: H77 NS5A 112A (UniProt P27958); experiment: mammalian two-hybrid assay; conditions: Huh-7 cells; GAL4/BD-fused and VP16/AD-fused NS5A both carry the mutation; parent: est. 100; read off a plot
[5] = target: JFH1 NS5A 38A; experiment: checkmate mammalian two-hybrid assay; conditions: Huh-7 cells; GAL4/BD-fused and VP16/AD-fused NS5A both carry the mutation; parent: est. 100; read off a plot
[6] = target: JFH1 NS5A 36A/37A/38A/112A/148A (both mutation groups combined); experiment: checkmate mammalian two-hybrid assay; conditions: Huh-7 cells; GAL4/BD-fused and VP16/AD-fused NS5A both carry the mutations; parent: est. 100; read off a plot
[7] = target: H77 NS5A 38A; experiment: mammalian two-hybrid assay; conditions: Huh-7 cells; GAL4/BD-fused and VP16/AD-fused NS5A both carry the mutation; parent: est. 100; read off a plot
[8] = target: H77 NS5A 36A/37A/38A (mutation group a); experiment: checkmate mammalian two-hybrid assay; conditions: Huh-7 cells; GAL4/BD-fused and VP16/AD-fused NS5A both carry the mutations; parent: est. 100; read off a plot
[9] = target: JFH1 NS5A 36A (hepatitis C virus genotype 2a (JFH1 strain)); experiment: two-hybrid; Checkmate mammalian two-hybrid: GAL4/BD fusion (pBIND) and VP16/AD fusion (pACT) with the pGL4.3[luc2P/Gal4UAS/Hygro] reporter co-transfected into FT3-7 (Huh-7) cells; lysed at 48 h; F-Luc/R-Luc ratio; for NS5A both fusions carry the same NS5A
[10] = target: JFH1 NS5A 36A; experiment: checkmate mammalian two-hybrid assay; conditions: Huh-7 cells; GAL4/BD-fused and VP16/AD-fused NS5A both carry the mutation; parent: est. 100; read off a plot
[11] = target: JFH1 NS5A 36A/37A/38A (mutation group a); experiment: checkmate mammalian two-hybrid assay; conditions: Huh-7 cells; GAL4/BD-fused and VP16/AD-fused NS5A both carry the mutations; parent: est. 100; read off a plot
[12] = target: JFH1 NS5A 112A (UniProt Q99IB8); experiment: checkmate mammalian two-hybrid assay; conditions: Huh-7 cells; GAL4/BD-fused and VP16/AD-fused NS5A both carry the mutation; parent: est. 100; read off a plot
[13] = target: H77 NS5A 38A (hepatitis C virus genotype 1a (H77 strain)); experiment: two-hybrid; Checkmate mammalian two-hybrid: GAL4/BD fusion (pBIND) and VP16/AD fusion (pACT) with the pGL4.3[luc2P/Gal4UAS/Hygro] reporter co-transfected into FT3-7 (Huh-7) cells; lysed at 48 h; F-Luc/R-Luc ratio; for NS5A both fusions carry the same NS5A
[14] = target: H77 NS5A 112A/148A (mutation group b); experiment: checkmate mammalian two-hybrid assay; conditions: Huh-7 cells; GAL4/BD-fused and VP16/AD-fused NS5A both carry the mutations; parent: est. 100; read off a plot
[15] = target: H77 NS5A 148A; experiment: mammalian two-hybrid assay; conditions: Huh-7 cells; GAL4/BD-fused and VP16/AD-fused NS5A both carry the mutation; parent: est. 100; read off a plot
[16] = target: YFP-fused JFH1 NS5A 148A of HJ3-5/NS5A^YFP (hepatitis C virus genotype 2a (JFH1 strain)); experiment: co-IP; GFP immunoprecipitation (anti-GFP magnetic beads, 1 h, 4 C) of NS5A^YFP from lysates (0.5% Triton X-100, 10 mM Tris-HCl pH 7.5, 150 mM NaCl) of cells electroporated with HJ3-5/NS5A^YFP RNA; core detected by western blot; ratio of co-IP core per IP NS5A^YFP
[17] = target: YFP-fused JFH1 NS5A 37A of HJ3-5/NS5A^YFP (hepatitis C virus genotype 2a (JFH1 strain)); experiment: as above
[18] = target: YFP-fused JFH1 NS5A 38A of HJ3-5/NS5A^YFP (hepatitis C virus genotype 2a (JFH1 strain)); experiment: as above
[19] = target: JFH1 NS5A 37A; experiment: checkmate mammalian two-hybrid assay; conditions: Huh-7 cells; GAL4/BD-fused and VP16/AD-fused NS5A both carry the mutation; parent: est. 100; read off a plot

“wild-type full-length NS5A of gt2a HCV JFH1 (from UniProt Q99IB8) 112A; 148A” showed a percent of parent [1] of 2.7 % wt.
Work on “wild-type full-length NS5A of gt1a HCV H77 (from UniProt P27958) 36A; 37A; 38A; 112A; 148A” yielded a percent of parent [2] of 3.3 % wt.
With “wild-type full-length NS5A of gt1a HCV H77 (from UniProt P27958) 37A” the percent of parent [3] was 45 % wt.
“wild-type full-length NS5A of gt1a HCV H77 (from UniProt P27958) 112A” was tested, and the percent of parent [4] was 27 % wt.
“wild-type full-length NS5A of gt2a HCV JFH1 (from UniProt Q99IB8) 38A” gave a percent of parent [5] of 77 % wt.
In the case of “wild-type full-length NS5A of gt2a HCV JFH1 (from UniProt Q99IB8) 36A; 37A; 38A; 112A; 148A”, the percent of parent [6] was 2.5 % wt.
“wild-type full-length NS5A of gt1a HCV H77 (from UniProt P27958) 38A” showed a percent of parent [7] of 130 % wt.
Work on “wild-type full-length NS5A of gt1a HCV H77 (from UniProt P27958) 36A; 37A; 38A” yielded a percent of parent [8] of 17 % wt.
With JFH1 NS5A 36A (natural protein) the percent of wt NS5A self-interaction (F-Luc/R-Luc) [9] was 20 % of wt.
Work on “wild-type full-length NS5A of gt2a HCV JFH1 (from UniProt Q99IB8) 36A” yielded a percent of parent [10] of 22 % wt.
For “wild-type full-length NS5A of gt2a HCV JFH1 (from UniProt Q99IB8) 36A; 37A; 38A”, the percent of parent [11] was 11 % wt.
Substance “wild-type full-length NS5A of gt2a HCV JFH1 (from UniProt Q99IB8) 112A” has a percent of parent [12] of 110 % wt.
H77 NS5A 38A (natural protein) was tested, and the percent above wt NS5A self-interaction (F-Luc/R-Luc) [13] was 30 % above wt.
Substance “wild-type full-length NS5A of gt1a HCV H77 (from UniProt P27958) 112A; 148A” has a percent of parent [14] of 11 % wt.
For “wild-type full-length NS5A of gt1a HCV H77 (from UniProt P27958) 148A”, the percent of parent [15] was 13 % wt.
“HCV core protein (H77 core of the chimera HJ3-5) (natural protein)” was tested, and the NS5A and core co-IP efficiency against wt (% lower than wt) [16] was 50, the NS5A and core co-IP efficiency against wt (% lower than wt) [17] was 50 and the NS5A and core co-IP efficiency against wt (% lower than wt) [18] was 50.
“wild-type full-length NS5A of gt2a HCV JFH1 (from UniProt Q99IB8) 37A” was tested, and the percent of parent [19] was 78 % wt.
